Consider four molecules from patent US20140087995A1 (published 2014).

Numbered stars: 1 amine (or outer) side, 2 acyl side, 3 side chain; on linkers, the order of the positions; unused ones are H or OH. Bridge positions count the residues as written; N and C are the ends. Side chains are listed from the residue outwards. Ends that are not written are not given here. * marks the point of attachment. C20 diacid = O=C(O)CCCCCCCCCCCCCCCCCCC(=O)*; γGlu = O=C(O)[C@H](CCC(=O)[*:2])N[*:1]; AEEA = NCCOCCOCC(=O)O

T1: rat calcitonin receptor (rat, UniProt P32214 25-516)
T1 construct: whole, on cells; Used as membranes prepared from BHK tk'ts 13 cells transiently transfected with the rat calcitonin receptor (Assay VIII); also called rCTR; rat calcitonin (a) receptor
T1 sequence (looked up): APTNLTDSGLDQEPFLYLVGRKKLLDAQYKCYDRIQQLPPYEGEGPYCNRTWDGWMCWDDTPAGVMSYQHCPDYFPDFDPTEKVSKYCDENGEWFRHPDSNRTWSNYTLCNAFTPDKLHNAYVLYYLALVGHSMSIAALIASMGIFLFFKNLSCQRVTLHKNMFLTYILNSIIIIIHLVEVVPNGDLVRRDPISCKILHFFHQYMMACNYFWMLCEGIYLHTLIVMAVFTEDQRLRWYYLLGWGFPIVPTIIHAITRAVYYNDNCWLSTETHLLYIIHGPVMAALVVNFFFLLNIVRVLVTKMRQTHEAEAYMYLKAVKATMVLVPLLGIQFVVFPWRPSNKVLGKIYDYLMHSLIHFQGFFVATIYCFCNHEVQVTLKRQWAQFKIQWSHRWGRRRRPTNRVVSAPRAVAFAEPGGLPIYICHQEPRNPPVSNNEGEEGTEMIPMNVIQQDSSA

T2: rat amylin receptor (rat calcitonin receptor + rat RAMP 3) (rat, UniProt P32214 25-516; Q9JJ73 23-147)
T2 construct: whole, on cells; Used as membranes prepared from BHK tk'ts 13 cells transiently transfected with rat calcitonin receptor and rat RAMP 3 (Assay VI); also called rAmylin-R; rat amylin 3(a) receptor
T2 sequence (looked up) 1: T1 sequence (looked up)
T2 sequence (looked up) 2: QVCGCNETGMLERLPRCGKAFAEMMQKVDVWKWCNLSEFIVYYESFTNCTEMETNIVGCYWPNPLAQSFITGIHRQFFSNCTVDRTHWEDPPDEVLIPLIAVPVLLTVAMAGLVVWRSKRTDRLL

T3: human calcitonin receptor (human, UniProt P30988 25-474)
T3 construct: whole, on cells; Used as membranes prepared from a BHK tk'ts 13 cell line stably transfected with the human calcitonin receptor (Assay VII); also called hCTR; hCT
T3 sequence (looked up): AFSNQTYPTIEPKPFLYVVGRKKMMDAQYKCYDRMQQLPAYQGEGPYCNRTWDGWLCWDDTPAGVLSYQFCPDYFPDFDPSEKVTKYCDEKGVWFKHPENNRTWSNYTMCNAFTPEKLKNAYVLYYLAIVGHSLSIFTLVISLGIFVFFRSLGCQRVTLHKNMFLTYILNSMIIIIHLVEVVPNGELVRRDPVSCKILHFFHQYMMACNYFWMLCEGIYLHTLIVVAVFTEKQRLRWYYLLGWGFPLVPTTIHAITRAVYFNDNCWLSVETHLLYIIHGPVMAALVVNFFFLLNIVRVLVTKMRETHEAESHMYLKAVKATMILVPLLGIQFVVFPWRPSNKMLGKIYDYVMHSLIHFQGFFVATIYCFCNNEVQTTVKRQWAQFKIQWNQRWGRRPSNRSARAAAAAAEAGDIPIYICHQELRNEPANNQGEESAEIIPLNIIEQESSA

B1: N^ε1-[2-[2-[2-[[(4S)-4-carboxy-4-(19-carboxynonadecanoylamino)butanoyl]amino]ethoxy]ethoxy]acetyl]-[Arg17,Pro21,Pro27,Pro31]-h-amylin (peptide)
peptide: K([AEEA-γGlu-C20 diacid])CNTATCATQRLANFLRHSSPNFGAIPSSTPVGSNTY-NH2
modifications: disulfide 2-7; N-terminus assumed
SMILES: CC[C@H](C)[C@H](NC(=O)[C@H](C)NC(=O)CNC(=O)[C@H](Cc1ccccc1)NC(=O)[C@H](CC(N)=O)NC(=O)[C@@H]1CCCN1C(=O)[C@H](CO)NC(=O)[C@H](CO)NC(=O)[C@H](Cc1c[nH]cn1)NC(=O)[C@H](CCCNC(=N)N)NC(=O)[C@H](CC(C)C)NC(=O)[C@H](Cc1ccccc1)NC(=O)[C@H](CC(N)=O)NC(=O)[C@H](C)NC(=O)[C@H](CC(C)C)NC(=O)[C@H](CCCNC(=N)N)NC(=O)[C@H](CCC(N)=O)NC(=O)[C@@H](NC(=O)[C@H](C)NC(=O)[C@@H]1CSSC[C@H](NC(=O)[C@@H](N)CCCCNC(=O)COCCOCCNC(=O)CC[C@H](NC(=O)CCCCCCCCCCCCCCCCCCC(=O)O)C(=O)O)C(=O)N[C@@H](CC(N)=O)C(=O)N[C@@H]([C@@H](C)O)C(=O)N[C@@H](C)C(=O)N[C@@H]([C@@H](C)O)C(=O)N1)[C@@H](C)O)C(=O)N1CCC[C@H]1C(=O)N[C@@H](CO)C(=O)N[C@@H](CO)C(=O)N[C@H](C(=O)N1CCC[C@H]1C(=O)N[C@H](C(=O)NCC(=O)N[C@@H](CO)C(=O)N[C@@H](CC(N)=O)C(=O)N[C@H](C(=O)N[C@@H](Cc1ccc(O)cc1)C(N)=O)[C@@H](C)O)C(C)C)[C@@H](C)O
notes: Analogue of human amylin; also called compound 49
B2: N^ε1-[2-[2-[2-[[(4S)-4-carboxy-4-(19-carboxynonadecanoylamino)butanoyl]amino]ethoxy]ethoxy]acetyl]-[Arg17,Pro21,Pro27,Pro34,His35]-h-amylin (peptide)
peptide: K([AEEA-γGlu-C20 diacid])CNTATCATQRLANFLRHSSPNFGAIPSSTNVGPHTY-NH2
modifications: disulfide 2-7; N-terminus assumed
SMILES: CC[C@H](C)[C@H](NC(=O)[C@H](C)NC(=O)CNC(=O)[C@H](Cc1ccccc1)NC(=O)[C@H](CC(N)=O)NC(=O)[C@@H]1CCCN1C(=O)[C@H](CO)NC(=O)[C@H](CO)NC(=O)[C@H](Cc1c[nH]cn1)NC(=O)[C@H](CCCNC(=N)N)NC(=O)[C@H](CC(C)C)NC(=O)[C@H](Cc1ccccc1)NC(=O)[C@H](CC(N)=O)NC(=O)[C@H](C)NC(=O)[C@H](CC(C)C)NC(=O)[C@H](CCCNC(=N)N)NC(=O)[C@H](CCC(N)=O)NC(=O)[C@@H](NC(=O)[C@H](C)NC(=O)[C@@H]1CSSC[C@H](NC(=O)[C@@H](N)CCCCNC(=O)COCCOCCNC(=O)CC[C@H](NC(=O)CCCCCCCCCCCCCCCCCCC(=O)O)C(=O)O)C(=O)N[C@@H](CC(N)=O)C(=O)N[C@@H]([C@@H](C)O)C(=O)N[C@@H](C)C(=O)N[C@@H]([C@@H](C)O)C(=O)N1)[C@@H](C)O)C(=O)N1CCC[C@H]1C(=O)N[C@@H](CO)C(=O)N[C@@H](CO)C(=O)N[C@H](C(=O)N[C@@H](CC(N)=O)C(=O)N[C@H](C(=O)NCC(=O)N1CCC[C@H]1C(=O)N[C@@H](Cc1c[nH]cn1)C(=O)N[C@H](C(=O)N[C@@H](Cc1ccc(O)cc1)C(N)=O)[C@@H](C)O)C(C)C)[C@@H](C)O
notes: Analogue of human amylin; also called compound 58
B3: N^ε1-[2-[2-[2-[[(4S)-4-carboxy-4-(19-carboxynonadecanoylamino)butanoyl]amino]ethoxy]ethoxy]acetyl]-[Gly14,Arg17,Pro21,Pro27,Pro31]-h-amylin (peptide)
peptide: K([AEEA-γGlu-C20 diacid])CNTATCATQRLAGFLRHSSPNFGAIPSSTPVGSNTY-NH2
modifications: disulfide 2-7; N-terminus assumed
SMILES: CC[C@H](C)[C@H](NC(=O)[C@H](C)NC(=O)CNC(=O)[C@H](Cc1ccccc1)NC(=O)[C@H](CC(N)=O)NC(=O)[C@@H]1CCCN1C(=O)[C@H](CO)NC(=O)[C@H](CO)NC(=O)[C@H](Cc1c[nH]cn1)NC(=O)[C@H](CCCNC(=N)N)NC(=O)[C@H](CC(C)C)NC(=O)[C@H](Cc1ccccc1)NC(=O)CNC(=O)[C@H](C)NC(=O)[C@H](CC(C)C)NC(=O)[C@H](CCCNC(=N)N)NC(=O)[C@H](CCC(N)=O)NC(=O)[C@@H](NC(=O)[C@H](C)NC(=O)[C@@H]1CSSC[C@H](NC(=O)[C@@H](N)CCCCNC(=O)COCCOCCNC(=O)CC[C@H](NC(=O)CCCCCCCCCCCCCCCCCCC(=O)O)C(=O)O)C(=O)N[C@@H](CC(N)=O)C(=O)N[C@@H]([C@@H](C)O)C(=O)N[C@@H](C)C(=O)N[C@@H]([C@@H](C)O)C(=O)N1)[C@@H](C)O)C(=O)N1CCC[C@H]1C(=O)N[C@@H](CO)C(=O)N[C@@H](CO)C(=O)N[C@H](C(=O)N1CCC[C@H]1C(=O)N[C@H](C(=O)NCC(=O)N[C@@H](CO)C(=O)N[C@@H](CC(N)=O)C(=O)N[C@H](C(=O)N[C@@H](Cc1ccc(O)cc1)C(N)=O)[C@@H](C)O)C(C)C)[C@@H](C)O
notes: Analogue of human amylin; also called compound 71
B4: N^ε1-[2-[2-[2-[[(4S)-4-carboxy-4-(19-carboxynonadecanoylamino)butanoyl]amino]ethoxy]ethoxy]acetyl]-[Arg17,Pro21,Pro27,Pro34]-h-amylin (peptide)
peptide: K([AEEA-γGlu-C20 diacid])CNTATCATQRLANFLRHSSPNFGAIPSSTNVGPNTY-NH2
modifications: disulfide 2-7; N-terminus assumed
SMILES: CC[C@H](C)[C@H](NC(=O)[C@H](C)NC(=O)CNC(=O)[C@H](Cc1ccccc1)NC(=O)[C@H](CC(N)=O)NC(=O)[C@@H]1CCCN1C(=O)[C@H](CO)NC(=O)[C@H](CO)NC(=O)[C@H](Cc1c[nH]cn1)NC(=O)[C@H](CCCNC(=N)N)NC(=O)[C@H](CC(C)C)NC(=O)[C@H](Cc1ccccc1)NC(=O)[C@H](CC(N)=O)NC(=O)[C@H](C)NC(=O)[C@H](CC(C)C)NC(=O)[C@H](CCCNC(=N)N)NC(=O)[C@H](CCC(N)=O)NC(=O)[C@@H](NC(=O)[C@H](C)NC(=O)[C@@H]1CSSC[C@H](NC(=O)[C@@H](N)CCCCNC(=O)COCCOCCNC(=O)CC[C@H](NC(=O)CCCCCCCCCCCCCCCCCCC(=O)O)C(=O)O)C(=O)N[C@@H](CC(N)=O)C(=O)N[C@@H]([C@@H](C)O)C(=O)N[C@@H](C)C(=O)N[C@@H]([C@@H](C)O)C(=O)N1)[C@@H](C)O)C(=O)N1CCC[C@H]1C(=O)N[C@@H](CO)C(=O)N[C@@H](CO)C(=O)N[C@H](C(=O)N[C@@H](CC(N)=O)C(=O)N[C@H](C(=O)NCC(=O)N1CCC[C@H]1C(=O)N[C@@H](CC(N)=O)C(=O)N[C@H](C(=O)N[C@@H](Cc1ccc(O)cc1)C(N)=O)[C@@H](C)O)C(C)C)[C@@H](C)O
notes: Analogue of human amylin; also called compound 50

The first test deals with T1, rat calcitonin receptor. Briefly: IC50 on rat CTR divided by IC50 on rat amylin receptor (Assays VIII/VI).
As for B1, the “Ratio rCT/rAmylin binding” value came to 47.7.

Take B2: the “Ratio rCT/rAmylin binding” value amounted to 76.6.

Regarding B3, the “Ratio rCT/rAmylin binding” value was 162.

As to B4, the “Ratio rCT/rAmylin binding” value stood at 81.7.

For a further test, the target named is T1, rat calcitonin receptor. Nature of the test: SPA competition with 125I-calcitonin, membranes of BHK cells with rat CTR (Assay VIII).
As to B1, the IC50 came to 51.4 nM.

On to B2, for which the IC50 was found to be 10.3 nM.

Regarding B3, the IC50 was determined as 44.8 nM.

Consider B4, for which the IC50 stood at 5.63 nM.

Another test has as its target T2, rat amylin receptor (rat calcitonin …). Briefly: SPA competition with 125I-rat amylin, membranes of BHK cells with rat CTR + rat RAMP3 (Assay VI).
As to B1, the IC50 came out at 1.08 nM.

On to B2, for which the IC50 was determined as 0.135 nM.

As for B3, the IC50 was 0.276 nM.

Consider B4, for which the IC50 was determined as 0.069 nM.

A further test concerns the target T3, human calcitonin receptor. Nature of the test: IC50 on human CTR divided by IC50 on human amylin receptor (Assays VII/V). Put shortly:
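Membranes (35 ng/μL final) + SPA beads, 50 mM Hepes pH 7.4 buffer with 1 mM CaCl2, 5 mM MgCl₂, 0.1% OA, 0.02% Tween20; 120 min, 25° C, shaking; centrifuged, counted; IC₅₀ by one-site binding competition.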
Regarding B1, the “Ratio hCT/hAmylin binding” value is 10.8.

For the molecule B2, the “Ratio hCT/hAmylin binding” value worked out at 109.

For the molecule B3, the “Ratio hCT/hAmylin binding” value was 32.

As for B4, the “Ratio hCT/hAmylin binding” value turned out to be 36.
